From US7067277B1, “Chimeric G proteins and uses thereof” (H. Lundbeck A/S, priority 1999, dated 2006)

Target: T1, Rat Y5 (Rattus norvegicus, UniProt Q63634)
T1 construct: linearized plasmids or PCR products containing the complete coding region of the genes; expressed in transfected cells; host or cells: Xenopus laevis oocytes (receptor cRNA injected)
T1 sequence (Q63634 1-445): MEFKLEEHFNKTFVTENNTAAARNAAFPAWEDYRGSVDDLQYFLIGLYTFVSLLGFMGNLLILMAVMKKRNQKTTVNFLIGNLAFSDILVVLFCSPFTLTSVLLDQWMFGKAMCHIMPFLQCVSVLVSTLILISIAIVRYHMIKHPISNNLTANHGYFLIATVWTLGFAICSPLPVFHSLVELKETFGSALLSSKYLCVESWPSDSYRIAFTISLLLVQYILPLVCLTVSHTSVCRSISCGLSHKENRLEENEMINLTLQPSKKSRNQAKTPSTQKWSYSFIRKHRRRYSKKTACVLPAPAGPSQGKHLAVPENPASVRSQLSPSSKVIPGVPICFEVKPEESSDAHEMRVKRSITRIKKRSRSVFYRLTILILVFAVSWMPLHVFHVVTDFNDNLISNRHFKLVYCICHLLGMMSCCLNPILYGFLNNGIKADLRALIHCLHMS
Assay: Cl- current recording in Xenopus oocytes expressing GPCR and chimeric G protein
Format: cell-based
Settings: Xenopus oocytes expressing Rat Y5 and chimera; mean ± s.e.m
Experimental: Oocytes were harvested from Xenopus laevis and injected with mRNA transcripts as previously described (Quick and Lester, 1994; Smith et al., 1997). Receptor and chimeric G protein α subunit RNA transcripts were synthesized using the T7 polymerase (“Message Machine,” Ambion) from linearized plasmids or PCR products containing the complete coding region of the genes. Oocytes were injected with 5–25 ng synthetic receptor RNA and incubated for 3–8 days at 17 degrees. Three to eight hours prior to recording, oocytes were injected with 500 pg chimeric Gα subunit mRNA. Dual electrode voltage clamp (Axon Instruments Inc.) was performed using 3 M KCl-filled glass microelectrodes having resistances of 1–2 MOhm. Unless otherwise specified, oocytes were voltage clamped at a holding potential of −80 mV. During recordings, oocytes were bathed in continuously flowing (1–3 ml/min) medium containing 96 mM NaCl, 2 mM KCl, 1.8 mM CaCl2, 1 mM MgCl2, and 5 mM HEPES, pH 7.5 (ND96). Drugs were applied by local perfusion from a 10 μl glass capillary tube fixed at a distance of 0.5 mm from the oocyte. Experiments were carried out at room temperature. All values are expressed as mean±standard error of the mean.

B1: cGαq/z9: C. elegans Gαq with Gαz portion of the C-terminal tail extended to 9 amino acids (SEQ ID NO: 2) (protein)
chain: MACCLSEEAREQKRINQEIEKQLQRDKRNARRELKLLLLGTGESGKSTFIKQMRIIHGQGYSEEDKRAHIRLVYQNVFMAIQSMIRAMDTLDIKFGNESEELQEKAAVVREVDFESVTSFEEPYVSYIKELWEDSGIQECYDRRREYQLTDSAKYYLSDLRRLAVPDYLPTEQDILRVRVPTTGIIEYPFDLEQIIFRMVDVGGQRSERRKWIHCFENVTSIMFLVALSEYDQVLVECDNENRMEESKALFRTIITYPWFTNSSVILFLNKKDLLEEKILYSHLADYFPEYDGPPRDPIAAREFILKMFVDLNPDADKIIYSHFTCATDTENIRFVFAAVKDTILQNNLKYIGLC
modifications: C. elegans
Response amplitudes (nA) in oocytes: 65 ± 34 nA
